From the supplement of paper PMC10567573

B1: SLC35F2 (parent)
chain: SFMPLVIKVTSATSVNLGILTADL

Variants of: B1
Assay: protein stability index of a GFP-peptide fusion (GPS, HEK-293T) (PSI 1-6); higher = more stable
Details: c terminus: a fixed tail appended
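Also: lentivirally expressed fusions sorted by FACS into six bins by GFP to DsRed ratio, PSI derived from sequencing read proportions per bin multiplied by bin number.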

Protein stability index, by site and new letter:
V15: Y 2.21, I 1.93, G 2.91, H 2.88, F 3.58, R 3.44, P 2.73, T 3.48
T10: I 4.8, Q 3.38, Y 2.64, W 3.57, K 2.12, D 3.46, M 2.46, F 3.67, V 3.4, C 2.93, S 2.65, P 1.31, H 3.25, E 2.98, R 2.69, N 2.43, G 3.08
L5: G 1.68, N 2.24, W 2.75, S 1.47, Q 2.19, C 3.74, E 1.51, Y 3.46, T 3.25, K 1.88, H 2.28, M 2.94, D 1.88, A 3.18, I 2.1, P 2.55, V 2.41, R 1.65
P4: L 2.34, Q 4.03, H 3.09, T 2.71, F 1.91, A 2.68, M 3.13, G 2.32, S 1.73, R 5.37, E 3.23, V 3.1, C 3.66, D 1.64, W 3.07
M3: K 2.4, R 1.58, V 2.06, L 2.73, Y 1.96, Q 2.13, G 3.41, T 2.79, N 3.15, C 1.59, P 3.32, D 2.11, W 4.7, S 3.76, I 2.15
V6: T 2.76, H 2.74, Y 3.21, I 2.65, Q 1.86, G 3.03, E 1.24, F 2.02, S 2, C 3.92, A 2.02, L 2.32, M 1.36, W 4.41, R 2.43, D 2.09, K 2.88, P 2.06, N 2.29
G18: L 3.54, F 3.03, H 3.1, E 2.91, D 3.2, C 3.82, N 3.27, K 2.9, A 2.54, I 3.72, M 2.55
I7: A 2.13, W 3.77, K 1.76, D 1.98, G 2.17, H 1.57, F 3.03, S 1.89, C 2.11, P 1.88, N 2.21, M 2.87, R 2.16, Q 2.26, E 1.49, L 3.42, T 2.19, V 3.05
A12: P 1.22, G 3.33, R 2.75, Q 2.82, S 1.89, W 1.91, K 4.17, M 2.9, N 2.58, V 2.75, E 3.09, L 3.32, D 2.82, F 2.25, I 2.85, C 4.33, Y 1.73, H 2.37, T 2.89
S1: H 2.96, K 5.06, A 3.22, Y 3.38, I 3.16, T 3.15, F 3.08, P 3.06, E 4.28, N 3.55, L 3.05, W 3.82, G 2.77, R 2.98, M 2.14, C 3.77
S14: H 1.79, M 2.72, W 2.61, C 3.32, N 3.45, L 2.15, R 2.42, F 2.94, Q 1.71, P 2.44, A 2.47
